As usually defined, the Kd is a measure of binding affinity in units of concentration. A higher Kd goes with a looser complex. As a reminder, the stoichiometry N is the number of molecules, sites or subunits per partner or assembly.

This note sets out measurements from publication PMC13066552 (Nature Communications, 2026).

Data set [1] concerns the target Bpa 31-146 (Mycobacterium tuberculosis) (UniProt P9WKX3). The experiment in a line: NMR titration.
The data set “native MS” concerns the molecule itself. Nature of the data set: native MS.
Data set [2] concerns the molecule itself. Nature of the data set: methyl-TROSY NMR spectra compared.

On to “DNA-binding domain of human Telomeric Repeat-binding Factor 1 (residues 378-430) (domain or fragment)”, for which the Kd in data set [1] is 1500 nM.

B1: Mycobacterium tuberculosis bacterial proteasome activator Bpa, full-length wild type (natural protein)
chain: MVIGLSTGSDDDDVEVIGGVDPRLIAVQENDSDESSLTDLVEQPAKVMRIGTMIKQLLEEVRAAPLDEASRNRLRDIHATSIRELEDGLAPELREELDRLTLPFNEDAVPSDAELRIAQAQLVGWLEGLFHGIQTALFAQQMAARAQLQQMRQGALPPGVGKSGQHGHGTGQYL
Take B1: the “stoichiometry N” value in “native MS” came to 2 subunits.

B2: Bpa 31-146 (domain or fragment)
chain: DSDESSLTDLVEQPAKVMRIGTMIKQLLEEVRAAPLDEASRNRLRDIHATSIRELEDGLAPELREELDRLTLPFNEDAVPSDAELRIAQAQLVGWLEGLFHGIQTALFAQQMAARA
Take B2: the “stoichiometry N” value in data set [2] was 12 subunits.
